Experiments:
[1] = target: the molecule itself; assay: crystal structure
[2] = target: the molecule itself; assay: SEC

| Protein | stoichiometry N [1] | stoichiometry N [2] |
| --- | --- | --- |
| DdrB from D. geothermalis labeled with SeMet (natural protein, selenomethionine (SeMet) in place of methionine) MLHIEFITDLGAKVTVDVESADKLLDVQRQYGRLGWTSGEVPVGGYQFPLENEPDFDWSLIGARKWTNPEGEEMILHRGHAYRRRELEAVDSRKMKLPAAVKYSRGAKNTDPEHVREKADGEFEYVTLAIFRGGKRQERYAVPGSNRPQAGAPARSAATRAQGARPGAVAVQDEETPF | 5 |  |
| DdrB (DNA damage response B) from D. geothermalis, native, untagged (natural protein) MLHIEFITDLGAKVTVDVESADKLLDVQRQYGRLGWTSGEVPVGGYQFPLENEPDFDWSLIGARKWTNPEGEEMILHRGHAYRRRELEAVDSRKMKLPAAVKYSRGAKNTDPEHVREKADGEFEYVTLAIFRGGKRQERYAVPGSNRPQAGAPARSAATRAQGARPGAVAVQDEETPF |  | 5 |

— article PMC2879517 (Nucleic Acids Research, 2010)
